Experimental data taken from publication PMC10786891, “Massively parallel profiling of RNA-targeting CRISPR-Cas13d”.

T1: EsCas13d, nuclease-dead (Eubacterium siraeum, UniProt B0MS50, R295A;H300A;R849A;H854A)
T1 sequence: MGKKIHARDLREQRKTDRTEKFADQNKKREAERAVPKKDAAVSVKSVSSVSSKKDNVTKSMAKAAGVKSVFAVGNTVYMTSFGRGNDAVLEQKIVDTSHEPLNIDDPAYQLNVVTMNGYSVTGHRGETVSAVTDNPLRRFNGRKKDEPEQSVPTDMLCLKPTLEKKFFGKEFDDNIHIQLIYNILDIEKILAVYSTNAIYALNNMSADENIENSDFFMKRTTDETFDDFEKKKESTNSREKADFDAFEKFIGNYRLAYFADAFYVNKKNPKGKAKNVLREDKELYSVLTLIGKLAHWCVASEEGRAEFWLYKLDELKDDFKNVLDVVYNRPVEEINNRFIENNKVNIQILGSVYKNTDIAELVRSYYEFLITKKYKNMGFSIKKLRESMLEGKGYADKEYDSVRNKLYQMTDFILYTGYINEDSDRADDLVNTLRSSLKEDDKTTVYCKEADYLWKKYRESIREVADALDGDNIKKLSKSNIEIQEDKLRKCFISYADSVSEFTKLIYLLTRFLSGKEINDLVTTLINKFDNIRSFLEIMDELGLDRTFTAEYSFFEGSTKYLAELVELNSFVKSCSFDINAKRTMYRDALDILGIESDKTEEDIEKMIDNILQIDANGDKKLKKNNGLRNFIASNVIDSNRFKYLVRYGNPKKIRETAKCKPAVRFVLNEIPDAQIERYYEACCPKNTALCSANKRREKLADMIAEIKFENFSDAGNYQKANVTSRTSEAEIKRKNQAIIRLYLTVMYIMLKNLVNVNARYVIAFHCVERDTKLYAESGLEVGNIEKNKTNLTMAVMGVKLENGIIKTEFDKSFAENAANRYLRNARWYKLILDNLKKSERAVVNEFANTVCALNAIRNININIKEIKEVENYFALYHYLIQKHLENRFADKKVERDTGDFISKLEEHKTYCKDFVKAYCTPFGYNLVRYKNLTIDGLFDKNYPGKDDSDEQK

B1: target 1 insG 3' of 19,insG 3' of 7 (mixed)
RNA 1: CACCCGUGCAAAAAUGCAGGGGUCUAAAACUGAGCGGAUAACCUCUCUAUGG
RNA 2: GGGAAUGGAUCCACAUCUACGAAUUCGUACCAUGAGAGAGGUUAUCGCGCUCACCGAGAUCGGAAGAGCACACGU
B2: target 1 insG 3' of 11,insG 3' of 10 (mixed)
RNA 1: CACCCGUGCAAAAAUGCAGGGGUCUAAAACUGAGCGGAUAACCUCUCUAUGG
RNA 2: GGGAAUGGAUCCACAUCUACGAAUUCGUACCAUAGAGAGGUGUGAUCCGCUCACCGAGAUCGGAAGAGCACACGU
B3: target 1 insU 3' of 9,insA 3' of 2 (mixed)
RNA 1: CACCCGUGCAAAAAUGCAGGGGUCUAAAACUGAGCGGAUAACCUCUCUAUGG
RNA 2: GGGAAUGGAUCCACAUCUACGAAUUCGUACCAUAGAGAGGUUAUUCCGCUCAACCGAGAUCGGAAGAGCACACGU
B4: target 1 insC 3' of 20,insG 3' of 8 (mixed)
RNA 1: CACCCGUGCAAAAAUGCAGGGGUCUAAAACUGAGCGGAUAACCUCUCUAUGG
RNA 2: GGGAAUGGAUCCACAUCUACGAAUUCGUACCACUAGAGAGGUUAUGCCGCUCACCGAGAUCGGAAGAGCACACGU
B5: target 1 A1C,U10C (mixed)
RNA 1: CACCCGUGCAAAAAUGCAGGGGUCUAAAACUGAGCGGAUAACCUCUCUAUGG
RNA 2: GGGAAUGGAUCCACAUCUACGAAUUCGUACCAUAGAGAGGUCAUCCGCUCCCCGAGAUCGGAAGAGCACACGU
B6: target 1 del13,del22 (mixed)
RNA 1: CACCCGUGCAAAAAUGCAGGGGUCUAAAACUGAGCGGAUAACCUCUCUAUGG
RNA 2: GGGAAUGGAUCCACAUCUACGAAUUCGUACAUAGAGAGUUAUCCGCUCACCGAGAUCGGAAGAGCACACGU
B7: target 1 U10C (mixed)
RNA 1: CACCCGUGCAAAAAUGCAGGGGUCUAAAACUGAGCGGAUAACCUCUCUAUGG
RNA 2: GGGAAUGGAUCCACAUCUACGAAUUCGUACCAUAGAGAGGUCAUCCGCUCACCGAGAUCGGAAGAGCACACGU
B8: target 1 insU 3' of 6,insG 3' of 4 (mixed)
RNA 1: CACCCGUGCAAAAAUGCAGGGGUCUAAAACUGAGCGGAUAACCUCUCUAUGG
RNA 2: GGGAAUGGAUCCACAUCUACGAAUUCGUACCAUAGAGAGGUUAUCCUGCGUCACCGAGAUCGGAAGAGCACACGU
B9: target 1 U8C,U10A (mixed)
RNA 1: CACCCGUGCAAAAAUGCAGGGGUCUAAAACUGAGCGGAUAACCUCUCUAUGG
RNA 2: GGGAAUGGAUCCACAUCUACGAAUUCGUACCAUAGAGAGGUAACCCGCUCACCGAGAUCGGAAGAGCACACGU
B10: target 1 insG 3' of 22,insA 3' of 2 (mixed)
RNA 1: CACCCGUGCAAAAAUGCAGGGGUCUAAAACUGAGCGGAUAACCUCUCUAUGG
RNA 2: GGGAAUGGAUCCACAUCUACGAAUUCGUACGCAUAGAGAGGUUAUCCGCUCAACCGAGAUCGGAAGAGCACACGU
B11: target 1 G12U,G17C (mixed)
RNA 1: CACCCGUGCAAAAAUGCAGGGGUCUAAAACUGAGCGGAUAACCUCUCUAUGG
RNA 2: GGGAAUGGAUCCACAUCUACGAAUUCGUACCAUACAGAGUUUAUCCGCUCACCGAGAUCGGAAGAGCACACGU
B12: target 1 del9 (mixed)
RNA 1: CACCCGUGCAAAAAUGCAGGGGUCUAAAACUGAGCGGAUAACCUCUCUAUGG
RNA 2: GGGAAUGGAUCCACAUCUACGAAUUCGUACCAUAGAGAGGUUUCCGCUCACCGAGAUCGGAAGAGCACACGU
B13: target 1 U8C,G13U (mixed)
RNA 1: CACCCGUGCAAAAAUGCAGGGGUCUAAAACUGAGCGGAUAACCUCUCUAUGG
RNA 2: GGGAAUGGAUCCACAUCUACGAAUUCGUACCAUAGAGAUGUUACCCGCUCACCGAGAUCGGAAGAGCACACGU
B14: target 1 U3G,A9G (mixed)
RNA 1: CACCCGUGCAAAAAUGCAGGGGUCUAAAACUGAGCGGAUAACCUCUCUAUGG
RNA 2: GGGAAUGGAUCCACAUCUACGAAUUCGUACCAUAGAGAGGUUGUCCGCGCACCGAGAUCGGAAGAGCACACGU
B15: target 1 A1U,U10C (mixed)
RNA 1: CACCCGUGCAAAAAUGCAGGGGUCUAAAACUGAGCGGAUAACCUCUCUAUGG
RNA 2: GGGAAUGGAUCCACAUCUACGAAUUCGUACCAUAGAGAGGUCAUCCGCUCUCCGAGAUCGGAAGAGCACACGU
B16: target 1 insC 3' of 11,insU 3' of 2 (mixed)
RNA 1: CACCCGUGCAAAAAUGCAGGGGUCUAAAACUGAGCGGAUAACCUCUCUAUGG
RNA 2: GGGAAUGGAUCCACAUCUACGAAUUCGUACCAUAGAGAGGUCUAUCCGCUCUACCGAGAUCGGAAGAGCACACGU
B17: target 1 insA 3' of 22,insU 3' of 20 (mixed)
RNA 1: CACCCGUGCAAAAAUGCAGGGGUCUAAAACUGAGCGGAUAACCUCUCUAUGG
RNA 2: GGGAAUGGAUCCACAUCUACGAAUUCGUACACAUUAGAGAGGUUAUCCGCUCACCGAGAUCGGAAGAGCACACGU
B18: target 1 insU 3' of 14,insG 3' of 6 (mixed)
RNA 1: CACCCGUGCAAAAAUGCAGGGGUCUAAAACUGAGCGGAUAACCUCUCUAUGG
RNA 2: GGGAAUGGAUCCACAUCUACGAAUUCGUACCAUAGAGAUGGUUAUCCGGCUCACCGAGAUCGGAAGAGCACACGU
B19: target 1 U3C,C7G (mixed)
RNA 1: CACCCGUGCAAAAAUGCAGGGGUCUAAAACUGAGCGGAUAACCUCUCUAUGG
RNA 2: GGGAAUGGAUCCACAUCUACGAAUUCGUACCAUAGAGAGGUUAUGCGCCCACCGAGAUCGGAAGAGCACACGU
B20: target 1 C4U,U8A (mixed)
RNA 1: CACCCGUGCAAAAAUGCAGGGGUCUAAAACUGAGCGGAUAACCUCUCUAUGG
RNA 2: GGGAAUGGAUCCACAUCUACGAAUUCGUACCAUAGAGAGGUUAACCGUUCACCGAGAUCGGAAGAGCACACGU
B21: target 1 insG 3' of 6,insU 3' of 6 (mixed)
RNA 1: CACCCGUGCAAAAAUGCAGGGGUCUAAAACUGAGCGGAUAACCUCUCUAUGG
RNA 2: GGGAAUGGAUCCACAUCUACGAAUUCGUACCAUAGAGAGGUUAUCCGUGCUCACCGAGAUCGGAAGAGCACACGU
B22: target 1 insA 3' of 21,insG 3' of 14 (mixed)
RNA 1: CACCCGUGCAAAAAUGCAGGGGUCUAAAACUGAGCGGAUAACCUCUCUAUGG
RNA 2: GGGAAUGGAUCCACAUCUACGAAUUCGUACCAAUAGAGAGGGUUAUCCGCUCACCGAGAUCGGAAGAGCACACGU
B23: target 1 U10A,A16G (mixed)
RNA 1: CACCCGUGCAAAAAUGCAGGGGUCUAAAACUGAGCGGAUAACCUCUCUAUGG
RNA 2: GGGAAUGGAUCCACAUCUACGAAUUCGUACCAUAGGGAGGUAAUCCGCUCACCGAGAUCGGAAGAGCACACGU
B24: target 1 C4A,U19G (mixed)
RNA 1: CACCCGUGCAAAAAUGCAGGGGUCUAAAACUGAGCGGAUAACCUCUCUAUGG
RNA 2: GGGAAUGGAUCCACAUCUACGAAUUCGUACCAGAGAGAGGUUAUCCGAUCACCGAGAUCGGAAGAGCACACGU
B25: target 1 insU 3' of 18,insG 3' of 2 (mixed)
RNA 1: CACCCGUGCAAAAAUGCAGGGGUCUAAAACUGAGCGGAUAACCUCUCUAUGG
RNA 2: GGGAAUGGAUCCACAUCUACGAAUUCGUACCAUAUGAGAGGUUAUCCGCUCGACCGAGAUCGGAAGAGCACACGU
B26: target 1 C7U,U10C (mixed)
RNA 1: CACCCGUGCAAAAAUGCAGGGGUCUAAAACUGAGCGGAUAACCUCUCUAUGG
RNA 2: GGGAAUGGAUCCACAUCUACGAAUUCGUACCAUAGAGAGGUCAUUCGCUCACCGAGAUCGGAAGAGCACACGU
B27: target 1 C6A,A20U (mixed)
RNA 1: CACCCGUGCAAAAAUGCAGGGGUCUAAAACUGAGCGGAUAACCUCUCUAUGG
RNA 2: GGGAAUGGAUCCACAUCUACGAAUUCGUACCUUAGAGAGGUUAUCAGCUCACCGAGAUCGGAAGAGCACACGU
B28: target 1 C2U,U19C (mixed)
RNA 1: CACCCGUGCAAAAAUGCAGGGGUCUAAAACUGAGCGGAUAACCUCUCUAUGG
RNA 2: GGGAAUGGAUCCACAUCUACGAAUUCGUACCACAGAGAGGUUAUCCGCUUACCGAGAUCGGAAGAGCACACGU

Target: T1, EsCas13d, nuclease-dead
Experiment: crRNA (strand 1, pre-loaded); Mg2+; 40 mM Tris-HCl pH 7.5, 150 mM NaCl, 6 mM MgCl2, 1 mM DTT, 0.1% Tween-20, 0.2 mg/ml BSA; 25 C; 10 min per concentration, then washed
Settings: tags: His6-TwinStrep-SUMO cleaved; N-terminal SNAP kept (SNAP-Surface 488); label: 3' end held by stalled T7 RNA polymerase

Binder	Kd
B1	46 ± 4 nM
B2	30 ± 4 nM
B3	19.8 ± 1.9 nM
B4	8.6 ± 0.4 nM
B5	22.2 ± 2.9 nM
B6	30.9 ± 3 nM
B7	18 ± 1.1 nM
B8	7.21 ± 0.28 nM
B9	11 ± 0.5 nM
B10	28.8 ± 2.3 nM
B11	~43 nM
B12	11.5 ± 0.6 nM
B13	61 ± 11 nM
B14	8.3 ± 0.8 nM
B15	20 ± 1.7 nM
B16	73 ± 21 nM
B17	16.7 ± 1 nM
B18	40 ± 6 nM
B19	8.47 ± 0.27 nM
B20	19 ± 1.1 nM
B21	9.9 ± 0.7 nM
B22	23.8 ± 2.3 nM
B23	38.4 ± 2.1 nM
B24	49 ± 19 nM
B25	26.4 ± 1.7 nM
B26	20.9 ± 1.5 nM
B27	35.2 ± 2.1 nM
B28	21.2 ± 1.5 nM
